Measurements reported in US20260365709 (published 2026).
Positions count from the first letter of the chain named. Read-outs that look alike come from different tables or passages of the source.

B1: h_DR1060_AA (hIL10 WT inverted monomer) (designed binder)
chain: KSKAVEQVKNAFNKLQEKGIYKAMSEFDIFINYIEAYMTMKIRNSPGQGTQSENSCTHFPGNLPNMLRDLRDAFSRVKTFFQMKDQLDNLLLKESLLEDFKGYLGCQALSEMIQFYLEEVMPQAENQDPDIKAHVNSLGENLKTLRLRLRRCHRFLPCENGGSHHHHHHHH
B2: DR2806 (designed binder)
chain: GKSKAVEQVKSIFNKLQDQGVYKAMNEFDIFINAIEAYMMIKMKSSREDNNCTHFNVGLSHMLLELRTAFSQVKTFFQTKDQLDNILLTDSLMQDFKGYLGCQALSEMIQFYLVEVLPQAEKHGPEIKEHLNSLGEILKTLRMRLRRCHRFLPCEN
B3: DR2802 (designed binder)
chain: B2 chain with N56M, G58A, L59M, I137K
B4: DR2813 (designed binder)
chain: B2 chain with I12D, N56W, G58A, L59M, F70A, N132I
B5: DR2809 (designed binder)
chain: B2 chain with F55A, N56P, L59Q, I137K
B6: DR2804 (designed binder)
chain: B2 chain with F55A, N56P, L59M, N132I
B7: DR2823 (designed binder)
chain: B2 chain with I12D, N56P, L59Q, L117M, I137K
B8: DR2817 (designed binder)
chain: B2 chain with I12D, F55A, N56P, L59Q, I137K
B9: DR2803 (designed binder)
chain: B2 chain with F55A, N56P, G58A, L59F, S60W
B10: DR2807 (designed binder)
chain: B2 chain with N56P, L59Q, L117M, I137K
B11: DR2816 (designed binder)
chain: B2 chain with I12D, F55A, N56P, L59Q
B12: DR2808 (designed binder)
chain: B2 chain with F55A, N56P, L59Q
B13: DR2805 (designed binder)
chain: B2 chain with F31V, F55A, N56P, G58M, L59F
B14: DR2815 (designed binder)
chain: B2 chain with I12D, G58V, L59M, I137K
B15: DR2822 (designed binder)
chain: GKSKAVEQVKSDFNKLQDQGVYKAMNEFDIFINAIEAYMMIKMKSREDNNCTHFPVGQSHMLLELRTAFSQVKTFFQTKDQLDNILLTDSLMQDFKGYLGCQALSEMIQFYLVEVMPQAEKHGPEIKEHLNSLGEKLKTLRMRLRRCHRFLPCEN
B16: DR2820 (designed binder)
chain: GKCKAVEQVKSDFNKLQDQGVYKAMNEFDIFINAIEAYMMIKMKSQYSREDNNCTHFPVGQSHMLLELRTAFSQVKTFFQTKDQLDNILLTDSLMQCFKGYLGCQALSEMIQFYLVEVMPQAEKHGPEIKEHLNSLGEKLKTLRMRLRRCHRFLPCEN
B17: DR2818 (designed binder)
chain: B16 chain with C3S, A5C, L94C, C97D
B18: DR2819 (designed binder)
chain: B16 chain with C3S, A5C
B19: DR2821 (designed binder)
chain: B16 chain with C3S, V6C, C97D, E109C
B20: mIL10 WT (protein)
chain: SRGQYSREDNNCTHFPVGQSHMLLELRTAFSQVKTFFQTKDQLDNILLTDSLMQDFKGYLGCQALSEMIQFYLVEVMPQAEKHGPEIKEHLNSLGEKLKTLRMRLRRCHRFLPCENKSKAVEQVKSDFNKLQDQGVYKAMNEFDIFINCIEAYMMIKMKS
modifications: wild-type mouse IL10, homodimer; exact construct/tag not stated
B21: hIL10 WT (protein)
chain: SPGQGTQSENSCTHFPGNLPNMLRDLRDAFSRVKTFFQMKDQLDNLLLKESLLEDFKGYLGCQALSEMIQFYLEEVMPQAENQDPDIKAHVNSLGENLKTLRLRLRRCHRFLPCENKSKAVEQVKNAFNKLQEKGIYKAMSEFDIFINYIEAYMTMKIRN
modifications: wild-type human IL10, homodimer; exact construct/tag not stated
B22: WC161_AA (mIL10 WT inverted monomer) (designed binder)
chain: NKSKAVEQVKSDFNKLQDQGVYKAMNEFDIFINAIEAYMMIKMKSSRGQYSREDNNCTHFPVGQSHMLLELRTAFSQVKTFFQTKDQLDNILLTDSLMQDFKGYLGCQALSEMIQFYLVEVMPQAEKHGPEIKEHLNSLGEKLKTLRMRLRRCHRFLPCENGGSHHHHHHHH

How the values were obtained:
Assay in all cases: SPR
hIL10RaFc (R&D 9044-RI) = target: T1, hIL10RaFc (R&D 9044-RI) (human, UniProt Q13651)
T1 chain: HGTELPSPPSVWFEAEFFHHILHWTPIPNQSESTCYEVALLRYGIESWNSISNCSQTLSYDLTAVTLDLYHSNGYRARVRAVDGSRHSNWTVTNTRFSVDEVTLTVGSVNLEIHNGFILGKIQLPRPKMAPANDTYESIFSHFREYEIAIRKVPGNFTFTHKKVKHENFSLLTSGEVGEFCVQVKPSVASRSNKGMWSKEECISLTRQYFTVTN

[1] = target: T2, mIL10RaFc (Sino 51298-M02H) (mouse, UniProt Q61727)
T2 chain: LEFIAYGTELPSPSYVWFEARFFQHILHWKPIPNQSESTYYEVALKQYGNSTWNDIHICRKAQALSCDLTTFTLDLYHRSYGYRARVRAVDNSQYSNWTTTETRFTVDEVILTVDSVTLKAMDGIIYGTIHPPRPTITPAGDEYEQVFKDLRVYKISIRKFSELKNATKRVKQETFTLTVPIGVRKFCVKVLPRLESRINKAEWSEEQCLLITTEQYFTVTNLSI

[2] = target: T2, mIL10RaFc (Sino 51298-M02H)

Binder | Kd [1] [nM] | other results
B1 |  | Kd (hIL10RaFc (R&D 9044-RI)): 0.38 nM
B2 | 2.7 | 
B3 | 2.29 | 
B4 | 39.9 | 
B5 | 17.3 | 
B6 | 1.59 | 
B7 | 5.2 | 
B8 | 1.65 | 
B9 | 1.7 | 
B10 | 144 | 
B11 | 1.61 | 
B12 | 1.35 | 
B13 | 30.9 | 
B14 | 1 | 
B15 | 6.42 | 
B16 | 3.37 | 
B17 | 2.34 | 
B18 | 2.71 | 
B19 | 4.49 | 
B20 |  | Kd [2]: 0.81 nM
B21 |  | Kd (hIL10RaFc (R&D 9044-RI)): 0.06 nM
B22 | 5.27 | Kd [2]: 6.54 nM
